The values that follow come from patent US20030186441A1 (MORPHOTEK, published 2003).

For this test, the target named is T1, full length hMLH1 protein (human, UniProt P40692 2-756).
T1 construct: also called MLH1 (human)
T1 sequence: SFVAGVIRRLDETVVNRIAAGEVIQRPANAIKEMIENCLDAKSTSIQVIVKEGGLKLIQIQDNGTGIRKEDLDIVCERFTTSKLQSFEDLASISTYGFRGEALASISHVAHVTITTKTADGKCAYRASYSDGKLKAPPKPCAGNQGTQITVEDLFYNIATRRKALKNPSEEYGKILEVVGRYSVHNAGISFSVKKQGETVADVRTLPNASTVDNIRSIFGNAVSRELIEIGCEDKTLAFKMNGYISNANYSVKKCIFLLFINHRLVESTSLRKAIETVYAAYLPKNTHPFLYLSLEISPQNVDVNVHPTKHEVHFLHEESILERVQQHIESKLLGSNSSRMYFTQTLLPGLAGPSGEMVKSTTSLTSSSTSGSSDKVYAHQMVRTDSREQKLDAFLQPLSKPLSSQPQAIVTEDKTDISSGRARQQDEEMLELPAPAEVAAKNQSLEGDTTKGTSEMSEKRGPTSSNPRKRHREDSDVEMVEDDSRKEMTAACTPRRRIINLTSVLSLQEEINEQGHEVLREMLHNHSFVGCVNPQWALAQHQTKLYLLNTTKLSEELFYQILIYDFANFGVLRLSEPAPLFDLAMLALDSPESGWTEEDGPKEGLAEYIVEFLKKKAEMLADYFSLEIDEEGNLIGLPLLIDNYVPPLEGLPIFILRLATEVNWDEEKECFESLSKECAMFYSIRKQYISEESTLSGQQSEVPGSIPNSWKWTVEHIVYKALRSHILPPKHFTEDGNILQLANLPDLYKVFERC
Description: co-immunoprecipitation of in vitro translated proteins with anti-hMLH1 mAb; converse experiment with N terminal hPMS2 antibody. An excerpt:
[…]. […] Lane 6 contains a nonprogrammed reticulocyte lysate. In both panels A and B, autoradiographs of immunoprecipitated products are shown. When a 35S labelled, full-length hMLH1 protein (FIG. 3A, lane 5) was mixed with the unlabelled carboxyl terminal hPMS2 polypeptide, a monoclonal antibody (mAb) to the carboxyl terminus of hPMS2 efficiently immunoprecipitated the labeled hMLH1 protein (lane 1). No hMLH1 protein was precipitated in the absence of hPMS2 (lane 2). Conversely, when the 35S labelled carboxyl terminus of hPMS2 (lane 3) was incubated with unlabelled, full length hMLH1 protein, an anti hMLH1 mAb precipitated the hPMS2 polypeptide (lane 4). In the absence of the unlabelled hMLH1 protein, no hPMS2 protein was precipitated by this mAb (lane 6).
Immunoprecipitation. Immunoprecipitations were performed on in vitro translated proteins by mixing the translation reactions with 1 μg of the MLH1 specific monoclonal antibody (mAB) MLH14 (Oncogene Science, Inc.), a polyclonal antibody generated to codons 2-20 of hPMS2 described above, or a polyclonal antibody generated to codons 843-862 of hPMS2 (Santa Cruz Biotechnology, Inc.) in […] of EBC buffer (50 mM Tris, pH 7.5, 0.1 M NaCl, 0.5% NP40). […]

B1: hPMS2-134 (containing codons 1-134 of hPMS2) (other)
chain: MERAESSSTEPAKAIKPIDRKSVHQICSGQVVLSLSTAVKELVENSLDAGATNIDLKLKDYGVDLIEVSDNGCGVEEENFEGLTLKHHTSKIQEFADLTQVETFGFRGEALSSLCALSDVTISTCHASAKVGTR
For the molecule B1, the binding result was “no binding”.
